# In patent US20100137221A1, “PEPTIDES THAT INTERACT WITH TOPOISOMERASE I AND METHODS THEREOF” (UNIVERSITY UTAH RESEARCH FOUNDATION, priority 2007, published 2010):
# Experiments:
# top 1-DNA binding = target: T1, top 1-DNA binding (Homo sapiens, UniProt P11387); assay: Biosensor analysis of the effect of peptide on top 1-DNA binding; conditions: 50 nM CPP4; top 1 5, 10 and 20 nM; biotinylated linear DNA
# T1 construct: made in house; host or cells: Sf9 insect cells (baculovirus) or human placenta
# T1 sequence (P11387 1-765): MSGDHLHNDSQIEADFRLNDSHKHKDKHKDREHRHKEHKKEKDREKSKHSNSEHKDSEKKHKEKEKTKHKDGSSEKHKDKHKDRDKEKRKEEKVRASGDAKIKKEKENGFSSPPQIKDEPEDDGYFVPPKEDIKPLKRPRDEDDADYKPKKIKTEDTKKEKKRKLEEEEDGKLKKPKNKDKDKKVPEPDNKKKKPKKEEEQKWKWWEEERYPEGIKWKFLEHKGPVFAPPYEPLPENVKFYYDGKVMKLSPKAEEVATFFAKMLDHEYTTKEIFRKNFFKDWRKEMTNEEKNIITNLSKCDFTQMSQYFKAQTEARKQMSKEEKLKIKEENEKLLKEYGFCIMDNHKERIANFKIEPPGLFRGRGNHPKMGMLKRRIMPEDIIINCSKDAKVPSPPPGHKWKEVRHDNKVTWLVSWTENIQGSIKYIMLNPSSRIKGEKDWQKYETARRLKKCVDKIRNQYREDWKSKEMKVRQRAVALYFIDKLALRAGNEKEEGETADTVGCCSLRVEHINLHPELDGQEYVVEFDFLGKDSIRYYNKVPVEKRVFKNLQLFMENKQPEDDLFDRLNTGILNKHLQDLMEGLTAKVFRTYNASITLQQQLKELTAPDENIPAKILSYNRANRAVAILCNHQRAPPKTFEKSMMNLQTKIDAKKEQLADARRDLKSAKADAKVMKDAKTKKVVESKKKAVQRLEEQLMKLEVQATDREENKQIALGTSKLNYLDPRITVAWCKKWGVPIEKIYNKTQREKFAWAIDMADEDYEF
# Description: Biotinylated linear DNA was attached to the flow cell via straptavidin. Top 1 (5, 10 and 20 nM) was applied.
# HCT 116 tumor = assay: In vivo HCT 116 tumor xenograft in nude mice; design: species or system nude (BalbC nu/nu) mice; conditions: all doses tested, i.p.
# Description: In vivo mouse studies: HCT 116 cells (4×10^6) were injected into the flanks of nude (BalbC nu/nu) mice for both experiments. The animals were randomized when the tumors were staged at 50 mm^3. In the first experiment, control animals were administered 0.1 ml of vehicle (α-MEM containing 0.05% methylcarboxycellulose and 2% DMSO) i.p., in the absence of peptide (PBS, control #1) or presence of T1BP2-T (control #2, 150 μg in 0.1 ml PBS) or T1BP3-T (control #3, 150 μg in 0.1 ml PBS) injected s.c. at site of tumor. […] Animals treated with 9AC were divided into 4 groups, each containing 5 mice. T1BP-T and PBS subcutaneous injections were administered as described above at the site of the tumor, 30 minutes after the i.p. injection of 9AC in a 50 μl volume. 9AC was dissolved in vehicle. Groups consisted of animals treated with a total of 4 mg/kg 9AC (low dose) in the absence or presence of T1BP2-T or a total of 8 mg/kg 9AC (high dose). Animals were treated with 1 or 2 mg/kg doses, twice a week over 2 weeks. In the second experiment, 18 mice were evaluated in three groups of six animals. Control animals were injected i.p. with 0.1 ml of vehicle (α-MEM containing 0.05% methylcarboxycellulose and 2% DMSO). […]
Molecule,top 1 dissociation from DNA (top 1-DNA binding),anti-tumor effect of 9AC alone (HCT 116 tumor)
DRVPLVHVIFNSFGY [CPP4],dissociation is slowed,
"CC[C@@]1(O)C(=O)OCc2c1cc1n(c2=O)Cc2cc3c(N)cccc3nc2-1 [9AC, 9-amino camptothecin]",,significant anti-tumor effects
